For assay [1], the target named is GpA G83I TMD (LexA-TMD-MBP chimera). The experiment in a line: GALLEX assay (β-gal activity of LexA-TMD-MBP chimera proteins). To be noted: n = 3; strong dimerization results in low β-gal activity; parent: est. 20; read off a plot.
For assay [2], the target named is NBD-labelled gp41 mutant peptide (HIV-1). The experiment in a line: FRET or BRET; NBD-labelled gp41 TMD or mutant peptide (donor, 0.1 µM) in PC∶Chol 9∶1 LUVs, titrated with Rho-labelled TLR2 TMD peptide at 1∶40, 1∶20, 1∶10 and 1∶1 acceptor∶donor; decrease of donor emission at 530 nm.
The target of assay [3] is NBD-labelled gp41 TMD peptide (HIV-1). The description is as above.
For assay [4], the target named is LexA-TMD-MBP chimera protein with the TLR2 TMD (GALLEX) (UniProt O60603). The experiment in a line: GALLEX assay (β-gal activity of LexA-TMD-MBP chimera proteins). To be noted: n = 3; strong dimerization results in low β-gal activity; parent: est. 48; read off a plot.
The target in assay [5] is TLR2 protein of RAW264.7 murine macrophages (mouse (endogenous in RAW264.7)) (UniProt Q9QUN7).
Assay [6] has the same target. This is another data set of the same source.

Bounds are passed on as bounds.

Sequence of UniProt Q9QUN7 (Q9QUN7 25-784): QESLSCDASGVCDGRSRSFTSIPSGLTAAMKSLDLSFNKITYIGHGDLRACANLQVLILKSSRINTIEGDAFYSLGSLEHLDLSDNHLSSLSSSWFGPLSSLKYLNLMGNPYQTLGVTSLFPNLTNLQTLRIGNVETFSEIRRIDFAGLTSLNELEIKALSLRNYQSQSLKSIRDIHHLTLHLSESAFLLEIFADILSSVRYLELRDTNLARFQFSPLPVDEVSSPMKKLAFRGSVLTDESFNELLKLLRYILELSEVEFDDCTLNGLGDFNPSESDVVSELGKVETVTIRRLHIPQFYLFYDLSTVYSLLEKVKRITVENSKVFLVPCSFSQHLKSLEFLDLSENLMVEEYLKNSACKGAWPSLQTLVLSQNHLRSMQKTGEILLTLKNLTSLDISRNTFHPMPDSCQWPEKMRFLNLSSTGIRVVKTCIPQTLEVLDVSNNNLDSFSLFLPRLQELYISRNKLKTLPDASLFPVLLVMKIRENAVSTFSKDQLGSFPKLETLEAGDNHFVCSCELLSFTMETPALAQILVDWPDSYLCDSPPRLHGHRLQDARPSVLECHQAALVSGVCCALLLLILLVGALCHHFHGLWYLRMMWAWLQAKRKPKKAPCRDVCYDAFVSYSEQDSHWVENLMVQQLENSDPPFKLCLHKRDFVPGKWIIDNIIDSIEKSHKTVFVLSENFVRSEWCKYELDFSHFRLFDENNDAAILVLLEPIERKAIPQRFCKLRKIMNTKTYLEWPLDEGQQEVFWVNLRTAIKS
Sequence of UniProt O60603 (O60603 21-784, stated change not applied): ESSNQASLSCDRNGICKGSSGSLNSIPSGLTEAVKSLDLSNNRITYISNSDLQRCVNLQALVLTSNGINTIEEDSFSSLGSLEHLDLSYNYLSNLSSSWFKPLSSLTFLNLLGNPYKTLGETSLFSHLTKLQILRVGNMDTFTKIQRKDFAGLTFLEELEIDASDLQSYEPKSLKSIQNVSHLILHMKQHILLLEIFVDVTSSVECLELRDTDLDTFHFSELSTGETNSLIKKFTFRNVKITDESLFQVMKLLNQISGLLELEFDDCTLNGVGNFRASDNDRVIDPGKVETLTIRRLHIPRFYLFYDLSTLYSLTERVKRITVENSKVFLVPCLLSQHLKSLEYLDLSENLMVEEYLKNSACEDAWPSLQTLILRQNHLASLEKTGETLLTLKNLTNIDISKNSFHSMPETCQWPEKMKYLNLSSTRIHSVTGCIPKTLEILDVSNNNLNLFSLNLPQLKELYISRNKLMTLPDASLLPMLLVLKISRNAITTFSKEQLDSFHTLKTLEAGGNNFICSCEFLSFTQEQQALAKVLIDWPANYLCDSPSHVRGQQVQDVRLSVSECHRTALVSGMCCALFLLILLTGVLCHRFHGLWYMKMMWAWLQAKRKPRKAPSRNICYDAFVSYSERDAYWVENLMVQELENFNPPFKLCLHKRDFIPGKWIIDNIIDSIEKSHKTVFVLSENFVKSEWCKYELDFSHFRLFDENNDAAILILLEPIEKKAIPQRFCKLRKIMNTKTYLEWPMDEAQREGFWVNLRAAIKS

On to “LexA-TMD-MBP chimera protein with the Glycophorin A (GpA) TMD (GALLEX) G83I”, for which the response in assay [1] was determined as 100%.
With Rho-labeled TLR2 TMD peptide, the decrease of the NBD donor emission at 530 nm (FRET) in assay [2] is less than 25%. Further, the decrease of the NBD donor emission at 530 nm (FRET) at 1∶1 ratio in assay [3] is more than 60%.
In the case of “LexA-TMD-MBP chimera protein with the gp41 wild type TMD (GALLEX) (from UniProt P04578) gp41 mutant”, the response in assay [4] is 68%.
For unlabeled WT gp41 TMD peptide, in assay [5], the ERK1,2 phosphorylation in RAW264.7 cells 20 minutes after LTA, cells pre-treated with the peptide for 2 hours (decrease of p-ERK band intensity) is more than 50%. Also, in assay [6], the MCP1 mRNA expression in LTA-activated RAW264.7 cells (real-time PCR), decrease against non-treated cells stood at 45% and the TNFα mRNA expression in LTA-activated RAW264.7 cells (real-time PCR), decrease against non-treated cells amounted to 72%.

(Values after paper PMC4133399.)
